A word on the EC50: it is the concentration that produces a half-maximal response.

This is an account of results in patent US20230257453A1 (published 2023).

Holding throughout (assay): ELISA
(An ELISA detects its analyte on a solid surface through an enzyme-linked reagent.)

For test [1], the target named is T1, denatured human collagen I (UniProt P02452 162-1218; P08123 80-1119).
The target of test [2] is T2, denatured human collagen type V (UniProt P20908 38-1605).
Test [3] addresses denatured mouse collagen IV (mouse, UniProt P02463 28-1669; P08122 26-1707).
Test [4] addresses T3, denatured human collagen type III (UniProt P02461 154-1221).
T3 chain: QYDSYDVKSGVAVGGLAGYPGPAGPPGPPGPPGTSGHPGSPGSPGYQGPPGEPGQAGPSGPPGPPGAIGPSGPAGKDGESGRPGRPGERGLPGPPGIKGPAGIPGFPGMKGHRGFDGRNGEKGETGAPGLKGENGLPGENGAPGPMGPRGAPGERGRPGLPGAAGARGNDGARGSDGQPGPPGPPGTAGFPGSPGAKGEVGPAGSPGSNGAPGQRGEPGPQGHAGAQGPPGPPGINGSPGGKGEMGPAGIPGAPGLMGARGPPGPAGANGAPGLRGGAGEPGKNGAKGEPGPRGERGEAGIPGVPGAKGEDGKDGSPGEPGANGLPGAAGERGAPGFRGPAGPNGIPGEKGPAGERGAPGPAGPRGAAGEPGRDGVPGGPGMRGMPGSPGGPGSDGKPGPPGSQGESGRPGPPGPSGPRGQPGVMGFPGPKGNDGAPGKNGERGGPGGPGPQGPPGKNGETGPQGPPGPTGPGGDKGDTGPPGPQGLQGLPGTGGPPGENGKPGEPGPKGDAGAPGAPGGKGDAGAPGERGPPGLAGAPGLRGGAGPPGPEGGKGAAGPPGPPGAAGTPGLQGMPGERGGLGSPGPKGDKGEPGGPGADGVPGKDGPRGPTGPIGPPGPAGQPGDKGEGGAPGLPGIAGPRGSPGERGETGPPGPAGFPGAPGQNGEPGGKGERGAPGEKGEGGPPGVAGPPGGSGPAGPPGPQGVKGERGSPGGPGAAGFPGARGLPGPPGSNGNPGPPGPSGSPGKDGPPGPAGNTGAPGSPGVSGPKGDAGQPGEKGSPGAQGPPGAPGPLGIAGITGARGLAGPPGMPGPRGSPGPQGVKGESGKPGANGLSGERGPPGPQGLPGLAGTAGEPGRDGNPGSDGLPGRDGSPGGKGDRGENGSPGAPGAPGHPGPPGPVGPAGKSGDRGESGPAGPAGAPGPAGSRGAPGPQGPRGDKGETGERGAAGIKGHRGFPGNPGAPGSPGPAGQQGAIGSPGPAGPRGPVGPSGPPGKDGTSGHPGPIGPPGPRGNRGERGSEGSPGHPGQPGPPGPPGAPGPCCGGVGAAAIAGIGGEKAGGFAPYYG

For test [5], the target named is T4, denatured human collagen type IV (UniProt P02462 173-1669; P08572 184-1712).
Test [6] addresses T4, denatured human collagen type IV. The source holds these as a separate data set.
Test [7] deals with denatured mouse collagen I (mouse, UniProt P11087 152-1207; Q01149 86-1125).
Test [8] addresses T2, denatured human collagen type V. This is another data set of the same source.
Test [9] concerns the target T4, denatured human collagen type IV. The source holds these as a separate data set.
The target of test [10] is T3, denatured human collagen type III.
Test [11] concerns the target T1, denatured human collagen I. The source holds these as a separate data set.

Residue numbers refer to the chain shown, from its start. Where two headings read alike, the source gives them in different places.

T2 sequence (P20908 38-1605): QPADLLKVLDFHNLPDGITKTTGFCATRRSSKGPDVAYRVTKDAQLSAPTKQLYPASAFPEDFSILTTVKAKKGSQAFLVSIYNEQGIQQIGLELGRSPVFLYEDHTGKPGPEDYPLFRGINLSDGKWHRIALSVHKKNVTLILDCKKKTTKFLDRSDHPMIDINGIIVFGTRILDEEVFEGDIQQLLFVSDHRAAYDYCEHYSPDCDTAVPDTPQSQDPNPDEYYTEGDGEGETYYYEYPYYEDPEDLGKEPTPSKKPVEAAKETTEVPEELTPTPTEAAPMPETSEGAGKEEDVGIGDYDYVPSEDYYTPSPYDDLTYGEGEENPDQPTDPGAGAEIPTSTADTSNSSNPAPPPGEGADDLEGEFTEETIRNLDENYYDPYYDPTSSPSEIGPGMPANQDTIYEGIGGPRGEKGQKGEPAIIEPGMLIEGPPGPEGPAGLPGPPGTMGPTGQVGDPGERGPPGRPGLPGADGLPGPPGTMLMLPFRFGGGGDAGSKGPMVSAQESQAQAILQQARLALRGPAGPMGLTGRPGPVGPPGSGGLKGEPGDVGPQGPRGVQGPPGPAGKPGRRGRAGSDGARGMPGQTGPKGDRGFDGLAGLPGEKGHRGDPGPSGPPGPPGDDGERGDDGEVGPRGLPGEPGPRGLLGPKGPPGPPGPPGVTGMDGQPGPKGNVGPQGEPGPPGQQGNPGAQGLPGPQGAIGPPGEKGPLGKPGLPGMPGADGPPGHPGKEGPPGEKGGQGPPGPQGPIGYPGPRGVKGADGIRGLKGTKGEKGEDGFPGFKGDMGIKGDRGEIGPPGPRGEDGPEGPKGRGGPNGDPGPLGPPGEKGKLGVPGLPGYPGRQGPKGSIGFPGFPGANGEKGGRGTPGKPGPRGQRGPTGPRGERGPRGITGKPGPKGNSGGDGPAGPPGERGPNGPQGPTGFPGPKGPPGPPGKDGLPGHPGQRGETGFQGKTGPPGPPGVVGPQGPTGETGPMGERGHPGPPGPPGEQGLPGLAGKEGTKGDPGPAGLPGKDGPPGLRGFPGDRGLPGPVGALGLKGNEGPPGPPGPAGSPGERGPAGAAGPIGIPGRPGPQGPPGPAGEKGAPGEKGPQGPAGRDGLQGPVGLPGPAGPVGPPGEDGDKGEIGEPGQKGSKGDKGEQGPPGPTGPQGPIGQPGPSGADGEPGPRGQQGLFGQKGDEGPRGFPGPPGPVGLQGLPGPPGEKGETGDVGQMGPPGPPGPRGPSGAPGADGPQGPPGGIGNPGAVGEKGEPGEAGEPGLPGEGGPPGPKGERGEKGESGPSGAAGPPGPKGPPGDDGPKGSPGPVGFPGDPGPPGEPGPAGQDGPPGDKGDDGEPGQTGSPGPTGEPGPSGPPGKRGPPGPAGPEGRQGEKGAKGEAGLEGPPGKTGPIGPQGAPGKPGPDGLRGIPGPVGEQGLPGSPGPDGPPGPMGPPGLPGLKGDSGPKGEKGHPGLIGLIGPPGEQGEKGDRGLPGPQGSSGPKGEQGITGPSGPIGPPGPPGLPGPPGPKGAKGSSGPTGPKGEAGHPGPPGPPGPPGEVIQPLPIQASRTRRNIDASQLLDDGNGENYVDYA
T1 sequence (P02452 162-1218 A1075T, chain 1 of 2): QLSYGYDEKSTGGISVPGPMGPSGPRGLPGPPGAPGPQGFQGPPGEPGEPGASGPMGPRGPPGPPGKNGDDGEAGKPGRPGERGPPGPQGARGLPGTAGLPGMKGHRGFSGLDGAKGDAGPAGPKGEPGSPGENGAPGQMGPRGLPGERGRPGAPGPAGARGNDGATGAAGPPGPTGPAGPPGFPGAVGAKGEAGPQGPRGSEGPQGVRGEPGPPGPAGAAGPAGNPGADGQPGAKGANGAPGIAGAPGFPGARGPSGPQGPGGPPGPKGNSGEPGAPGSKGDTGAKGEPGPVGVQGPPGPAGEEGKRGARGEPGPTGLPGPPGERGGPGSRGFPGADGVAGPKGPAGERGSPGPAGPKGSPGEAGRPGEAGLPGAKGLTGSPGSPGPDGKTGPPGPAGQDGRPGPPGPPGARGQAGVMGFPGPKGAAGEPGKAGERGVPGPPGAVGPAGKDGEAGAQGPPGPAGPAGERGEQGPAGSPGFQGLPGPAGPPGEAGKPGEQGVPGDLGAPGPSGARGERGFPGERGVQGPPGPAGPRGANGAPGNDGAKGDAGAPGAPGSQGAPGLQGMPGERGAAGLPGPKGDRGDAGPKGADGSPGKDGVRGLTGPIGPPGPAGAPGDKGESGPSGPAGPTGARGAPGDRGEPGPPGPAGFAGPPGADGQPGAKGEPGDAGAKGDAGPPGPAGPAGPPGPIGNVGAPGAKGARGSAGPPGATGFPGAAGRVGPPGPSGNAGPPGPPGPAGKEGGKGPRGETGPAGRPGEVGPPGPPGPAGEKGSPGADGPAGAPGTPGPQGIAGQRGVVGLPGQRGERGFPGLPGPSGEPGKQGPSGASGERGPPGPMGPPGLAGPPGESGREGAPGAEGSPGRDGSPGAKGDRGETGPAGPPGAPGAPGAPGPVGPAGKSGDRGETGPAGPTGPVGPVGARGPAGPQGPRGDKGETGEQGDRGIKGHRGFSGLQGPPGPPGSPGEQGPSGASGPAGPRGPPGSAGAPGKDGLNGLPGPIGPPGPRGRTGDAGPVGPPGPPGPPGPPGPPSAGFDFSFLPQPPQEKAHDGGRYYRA
T1 sequence (P08123 80-1119, chain 2 of 2): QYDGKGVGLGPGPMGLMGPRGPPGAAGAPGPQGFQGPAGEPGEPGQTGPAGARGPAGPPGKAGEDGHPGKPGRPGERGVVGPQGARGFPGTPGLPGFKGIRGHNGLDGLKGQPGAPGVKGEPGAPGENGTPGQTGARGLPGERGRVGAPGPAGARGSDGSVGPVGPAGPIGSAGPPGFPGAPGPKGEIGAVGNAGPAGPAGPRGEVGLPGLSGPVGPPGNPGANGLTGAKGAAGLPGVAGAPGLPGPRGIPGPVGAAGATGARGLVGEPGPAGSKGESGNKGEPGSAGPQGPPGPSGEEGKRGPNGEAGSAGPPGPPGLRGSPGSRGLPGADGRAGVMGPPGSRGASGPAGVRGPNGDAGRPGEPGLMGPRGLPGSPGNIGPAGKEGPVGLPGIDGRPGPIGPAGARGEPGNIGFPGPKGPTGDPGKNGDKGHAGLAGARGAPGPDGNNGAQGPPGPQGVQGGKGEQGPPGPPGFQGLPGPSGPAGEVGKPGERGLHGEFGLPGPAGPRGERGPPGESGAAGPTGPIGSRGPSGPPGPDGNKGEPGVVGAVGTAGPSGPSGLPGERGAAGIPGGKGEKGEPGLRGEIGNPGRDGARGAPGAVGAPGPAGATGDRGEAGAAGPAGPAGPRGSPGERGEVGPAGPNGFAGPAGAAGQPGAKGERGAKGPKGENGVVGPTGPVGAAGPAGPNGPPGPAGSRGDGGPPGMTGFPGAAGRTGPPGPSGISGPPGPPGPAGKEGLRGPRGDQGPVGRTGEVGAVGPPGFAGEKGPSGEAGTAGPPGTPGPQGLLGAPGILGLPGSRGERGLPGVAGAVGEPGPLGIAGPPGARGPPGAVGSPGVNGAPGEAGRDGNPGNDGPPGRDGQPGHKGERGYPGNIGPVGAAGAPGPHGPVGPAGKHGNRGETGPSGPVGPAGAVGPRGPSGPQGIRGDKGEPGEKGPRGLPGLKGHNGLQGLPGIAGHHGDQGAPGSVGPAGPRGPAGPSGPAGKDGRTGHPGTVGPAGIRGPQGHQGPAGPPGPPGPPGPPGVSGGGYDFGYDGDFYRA

B1: P27122713 (antibody)
heavy: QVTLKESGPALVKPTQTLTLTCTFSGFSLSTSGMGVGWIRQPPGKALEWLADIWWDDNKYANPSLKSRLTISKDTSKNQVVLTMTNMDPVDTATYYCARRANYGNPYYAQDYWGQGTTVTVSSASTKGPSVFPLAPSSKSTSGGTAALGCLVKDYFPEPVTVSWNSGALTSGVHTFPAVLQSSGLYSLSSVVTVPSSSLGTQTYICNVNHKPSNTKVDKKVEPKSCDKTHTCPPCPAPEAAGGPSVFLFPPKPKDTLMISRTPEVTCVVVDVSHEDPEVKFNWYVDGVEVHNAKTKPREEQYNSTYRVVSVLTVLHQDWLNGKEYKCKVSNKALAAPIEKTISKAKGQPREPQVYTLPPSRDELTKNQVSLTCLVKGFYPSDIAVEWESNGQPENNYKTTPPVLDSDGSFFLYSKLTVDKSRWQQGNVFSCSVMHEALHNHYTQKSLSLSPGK
light: DIVMTQTPLSLPVTPGEPASISCRSSQSIVHSNGNTYLEWYLQKPGQSPQLLIYKVSNRFSGVPDRFSGSGSGTDFTLKISRVEAEDVGVYYCFQGSHVPWTFGQGTKVEIKRTVAAPSVFIFPPSDEQLKSGTASVVCLLNNFYPREAKVQWKVDNALQSGNSQESVTEQDSKDSTYSLSSTLTLSKADYEKHKVYACEVTHQGLSSPVTKSFNRGEC
In the case of B1, the EC50 in test [1] is 59.7 nM; in test [2], roughly 259 nM; in [3], 487 nM; in [4] it was 32.9 nM; in [5], 10.4 nM.

B2: P27152798 (antibody)
heavy: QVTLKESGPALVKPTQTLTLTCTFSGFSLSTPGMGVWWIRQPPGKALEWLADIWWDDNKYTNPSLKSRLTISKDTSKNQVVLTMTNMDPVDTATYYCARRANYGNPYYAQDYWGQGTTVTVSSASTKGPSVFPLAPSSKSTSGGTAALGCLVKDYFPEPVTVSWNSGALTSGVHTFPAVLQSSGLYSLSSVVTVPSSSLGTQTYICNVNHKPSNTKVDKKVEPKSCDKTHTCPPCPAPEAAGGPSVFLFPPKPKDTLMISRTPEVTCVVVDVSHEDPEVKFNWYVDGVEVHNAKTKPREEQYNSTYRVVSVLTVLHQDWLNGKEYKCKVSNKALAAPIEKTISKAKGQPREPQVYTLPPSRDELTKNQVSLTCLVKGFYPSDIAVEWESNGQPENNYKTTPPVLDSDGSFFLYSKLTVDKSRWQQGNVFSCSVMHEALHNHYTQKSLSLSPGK
light: B1 light with G34A
In the case of B2, the EC50 in [6] stood at 9.97 nM; in test [1], 76.3 nM; in [2], 86.2 nM; in [3] it was 197 nM; in [4], 59.6 nM.

B3: P27152716 (antibody)
heavy: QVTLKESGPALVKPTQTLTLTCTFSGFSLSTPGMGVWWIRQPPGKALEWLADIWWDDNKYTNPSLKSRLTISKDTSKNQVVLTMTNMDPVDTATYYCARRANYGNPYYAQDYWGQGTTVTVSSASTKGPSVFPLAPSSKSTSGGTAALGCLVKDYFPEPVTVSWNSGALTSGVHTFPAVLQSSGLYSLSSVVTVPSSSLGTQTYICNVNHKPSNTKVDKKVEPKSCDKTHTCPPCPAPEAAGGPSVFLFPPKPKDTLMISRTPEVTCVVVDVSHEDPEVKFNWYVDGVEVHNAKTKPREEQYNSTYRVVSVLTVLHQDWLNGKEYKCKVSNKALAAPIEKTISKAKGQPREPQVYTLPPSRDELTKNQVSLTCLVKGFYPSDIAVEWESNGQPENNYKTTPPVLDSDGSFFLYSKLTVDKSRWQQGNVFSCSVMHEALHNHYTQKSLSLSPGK
light: B1 light with H31S, N33W
Regarding B3, the EC50 in test [1] was 2.12 nM; in test [2], 15.2 nM; in [7] it was 10.2 nM; in test [3], 229 nM; in test [4], 9.63 nM; in test [5] it was 1.37 nM.

B4: P27122714 (antibody)
chain 1: not shown
chain 2: B1 light with N33Q
Take B4: the EC50 in [1] came to 80.8 nM; in [5], 33.9 nM.

B5: P27962716 (antibody)
chain 1: not shown
chain 2: B1 light with H31S, N33W
For the molecule B5, the EC50 was 3.31 nM in test [8], 18.6 nM in test [9] and 3.94 nM in test [10].

B6: P27122716 (antibody)
chain 1: not shown
chain 2: B1 light with H31S, N33W
Regarding B6, the EC50 in [1] amounted to 19 nM; in [5] it was 125 nM.

B7: P27152714 (antibody, V domains shown)
VH: QVTLKESGPALVKPTQTLTLTCTFSGFSLSTPGMGVWWIRQPPGKALEWLADIWWDDNKYTNPSLKSRLTISKDTSKNQVVLTMTNMDPVDTATYYCARRANYGNPYYAQDYWGQGTTVTVSS
VL: DIVMTQTPLSLPVTPGEPASISCRSSQSIVHSQGNTYLEWYLQKPGQSPQLLIYKVSNRFSGVPDRFSGSGSGTDFTLKISRVEAEDVGVYYCFQGSHVPWTFGQGTKVEIKR
With B7, the EC50 in test [1] was 18.5 nM; in test [5], 13 nM.

B8: P27602716 (antibody, V domains shown)
VH: EVQLVESGGGLVQPGGSLRLSCAASGFSLSTPGMGVWWVRQAPGKGLEWLADIWWDDNKYTNPSLKSRLTISKDNAKNSLYLQMNSLRAEDTAVYYCARRANYGNPYYAQDYWGQGTTVTVSS
VL: B7 VL with H31S, Q33W
In the case of B8, the EC50 was 11.9 nM in test [6] and 21.1 nM in test [11].
